Measurements reported in the RNAGym collection of RNA variant scans (doi:10.1073/pnas.2313332121).

B1: TPR t1 (parent)
chain: GACCAAUCUGCCCUCAGAGCUCGAGAACAUCUUCGGAUGCAGAGGAGGCAGGCUUCGGUGGCGCGAUAGCGCCAACGUCCUCAACCUCCAAUGCAUCCCACCACAUGAUGAUGCCUGAAGAGCCUUGGUUUUUUG

Variants of: B1
Test: polymerase ribozyme fitness, log enrichment relative to wild type (log ratio); higher = more active; in vitro selection for triplet polymerase activity
Procedure, shortened: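 Mutant libraries of each subunit of a heterodimeric triplet polymerase ribozyme were built by PCR and transcribed. Each library went through one round of in vitro selection in triplicate: annealing with biotinylated primer, partner subunit and triplets, frozen incubation at −7 °C, gel excision of extended constructs, streptavidin-bead capture and RT-PCR. Input and output libraries were Illumina-sequenced; only genotypes with ≥10 input reads and ≥1 read per output were kept. Fitness is log2(genotype enrichment/wild-type enrichment), using inverse-variance-weighted replicate averages.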

| Variant | polymerase ribozyme fitness (log ratio) |
| --- | --- |
| G36A C82G C123U | -0.368 |
| A37G G69U C99A C114A | -3.09 |
| G36C G48A G60C G61C | -3.64 |
| G35U A100U | -5.66 |
| G35U C72A | -5.07 |
| A37G C73A C82A A83G | -2.53 |
| U38G G61C U96G G122A | -4.11 |
| G39A A84U | -1.22 |
| A37G C49G C82U | -0.637 |
| A37U U55G | -0.465 |
| G36A C88A | -1.76 |
| G36A C88G | -2.65 |
| A37U G69A | -3.01 |
| U38G G52A C62U C114A | -3.2 |
| A37C C56G C101A G110U G127U | -4.67 |
| G39A C72G G113A | -2.17 |
| A37C A43U C49G | -3.33 |
| G36A C97G U112G C115U | -5.56 |
| G36U A83C C104U U106G | -3.91 |
| A37C C123G | 0.773 |
| G36C G47A C56A G71A U78G C115U A118G | -6.68 |
| A37G G44C C72G U78C | -1.05 |
| G36U G47U | -2.97 |
| A37U C99U | -2.37 |

| Variant | polymerase ribozyme fitness (log ratio) |
| --- | --- |
| U38G U87A A95C | -1.01 |
| A37G C76G G113A | -1.57 |
| G35C C97A | -5.43 |
| U38G U55G A121C | 1.28 |
| G36C G45C C98U | -3.33 |
| G35C G63A C73A | -5.71 |
| G39A C49A G122A C123G | 0.869 |
| G36U U112G G113U | -3.55 |
| G36A G60C U78C C79U C85A A90G | -3.89 |
| G36U C56A | -1.83 |
| A37U C73G | -1.27 |
| G36U C56U C115G | -3.57 |
| A37U G47U U55G C114U | -3.49 |
| G36A G61U | 0.0512 |
| U38G G47C C114A | -5.64 |
| G36A C73G C101A U106C | -3.26 |
| G36U A46U C72G C82A U87C U130G | -3.54 |
| A37G G113C G135A | -2.17 |
| G36C U78G | -1.1 |
| A37U A41U C88U | -2.75 |
| G39A G60C G113C C115A | -4.37 |
| G36U U112G | -1.32 |
| G36U A46U G52U G120A | -2.3 |
| U38G U92A U109G C114A G122U | -6.12 |

| Variant | polymerase ribozyme fitness (log ratio) |
| --- | --- |
| G36U U81A | -2.11 |
| G36U G61A | -1.47 |
| U38A A75U C82U A83C C88G U112C G122A | -2.99 |
| G35U G61A C98G G107C C115A G120A | -7.51 |
| G36A A43C C73G | -4.51 |
| G36U U55G C89G G113U | -4.27 |
| G36C C76A U106A G110A | -4.36 |
| G36C G69A U112G G117A | -6.31 |
| G36C C56U | -0.42 |
| G36C C70G | -5.05 |
| A37U A50G G52A A111G G117A | -2.93 |
| A37G C49G C64G A111U U126G | -6.45 |
| G39A G52A C72U C85U A95C G113U | -5.94 |
| U38C U54A G77A U96A G120A | -4.19 |
| G39A C56U C85U A111U | -3.84 |
| G35U G69A | -7.16 |
| G36A C97U | -0.157 |
| A37C G39U C56U | -2.66 |
| G36C C56G C72U | -2.79 |
| G36C C40U G48U U125A | -3.35 |
| G36A A66C G120U | -1.74 |
| A37U A105C | -3.01 |
| G36U G63A C97U | -1.35 |
| G35C A95U | -4.31 |

| Variant | polymerase ribozyme fitness (log ratio) |
| --- | --- |
| A37U A46U C64U C115A | -3.03 |
| A37C C62G G120U U125G U130C | -3.18 |
| A37U U112A | 0.71 |
| G39A G57U C80A A121C | 0.47 |
| G35U G113A | -6.27 |
| G36U A118U | -1.08 |
| G35U G77C C123G | -5.04 |
| A37U C40A G69C U130A | -3.51 |
| A37U G52A G61A A105G G127C | -4.21 |
| G36U G52A C97U G110A | -2.04 |
| G36A G69A C73G G120A | -5.29 |
| G36A U92A | -3.67 |
| G36U C102A C123U | -2.11 |
| A37G C49A | -0.708 |
| G36C U59A G69C C88A C101A | -2.89 |
| A37U G51U G77A A91U | -6.95 |
| G35C A46C C97U | -6.04 |
| A37U G120A | 1.2 |
| A37U G69A G77A A90U C123U | -5.05 |
| G39A G51A C64U U78C | -3.91 |
| G36U A91U | -2.67 |
| A37U A50C G63U C79A C80G G107U G117C | -6.62 |
| G35U C70U C73A | -7.04 |
| A37U G44C C53G U55C G61A C89U G117C | -4.88 |

| Variant | polymerase ribozyme fitness (log ratio) |
| --- | --- |
| U38C C53G U59A U106A | -0.127 |
| G35C C88A | -5.61 |
| A37G G60A C102U | -3.61 |
| G35U G63A U67G C88A C124A G127C U132A | -7.2 |
| A37U G48A G61C A105U A111U | -6.69 |
| G39A G42U C72A | -1.57 |
| G36A C98U | -3.49 |
| G35U C56U | -4.99 |
| A37U A111U | -3.3 |
| A37U G69C U112A G128U | -4.19 |
| G36A C70U | -1.06 |
| G36A G71A | -1.64 |
| G36U U78G A105C | -3.65 |
| G36C G57C G61A U106C G113U | -3.7 |
| A37G C70G | -3.43 |
| A37C A91G | -2.03 |
| A37U U106C | -0.686 |
| G39A G51U A83G A95C C124A | -2.8 |
| A37U A50U G52A | -2.94 |
| G35C C49G C98G | -2.89 |
| G36A C49A G60A A118G | -1.7 |
| A37C G48C C53U U54A G60C C88A G93A C115U A121G | -6.81 |
| G36A A43C | -3.56 |
| U38G G44A G63C U96C | -2.8 |

| Variant | polymerase ribozyme fitness (log ratio) |
| --- | --- |
| G36A G52C A95G G113A | -3.73 |
| G36A G77C | -1.72 |
| A37G A83C C88G U130G | -4.95 |
| G36U C101A | -2.53 |
| A37G C56U C102A | -1.87 |
| G36C G69A G71A U81G C88A G93C C99A C123U | -6.5 |
| G36U A121G | 0.373 |
| G39A A50G C79A | -2.95 |
| G39A G44A U78C | -1.89 |
| A37U G58C A75U C80U G93A C97A | -6.83 |
| G35C G63U A74U A90G C123G G127C | -6.64 |
| U38C C64A | -6.78 |
| U38C G44U A111G U133G | -1.11 |
| A37C A46C C62U U78G | -1.66 |
| A37G G44C | -0.927 |
| G35C U38G G63C C123A U129A | -5.52 |
| G36U C72G | -1.68 |
| A37C A121U | 1.62 |
| A37U G52U G69C | -2.07 |
| A37U C88U C101G C115G | -3.98 |
| U38C G48U A68G G122A C123U | -3.71 |
| A37G C94G | -2.1 |
| G35U U67C U109A C115U | -5.63 |
| U38C G71C C82A A83U A90G | -2.39 |

| Variant | polymerase ribozyme fitness (log ratio) |
| --- | --- |
| G36A G48U A84G | -2.02 |
| U38G C49A C73U C86U U109G U126A | -5.53 |
| G36A C64U C72A U106A | -0.401 |
| A37C U38G | -1.27 |
| G36U C80A | -3.93 |
| G36U C53G C56A C72G | -3.23 |
| G36U U96A | -2.69 |
| A37U A100C A103U | -5.74 |
| A37C G71C | -1.27 |
| A37U G60A C101U | -0.477 |
| A37C G71U C101A G127C | -2.36 |
| U38G C56U U81A U131C | -2.23 |
| G39A A83U | -0.65 |
| G36A C49A G110C | -5.65 |
| G36U U130G | -2.05 |
| G35U U112A | -2.86 |
| A37C A83U | -0.456 |
| A37U U96G | -0.312 |
| A37U G69U U125C | -3.4 |
| G39A G48A C73A A100C G120A | -0.862 |
| A37U G61U G120C | 0.718 |
| A37C A46C C124G | 0.609 |
| A37U G48A G61C U116A | -4.18 |
